The source of these data is paper PMC3214623.

Assay [1] concerns the target human beta-2 microglobulin (human) (UniProt P61769). Put plainly: radioligand binding.
Assay [2] addresses porcine beta-2 microglobulin (pig) (UniProt Q07717). The assay is described as follows: radioligand binding.
UniProt Q07717, sequence (Q07717 21-118): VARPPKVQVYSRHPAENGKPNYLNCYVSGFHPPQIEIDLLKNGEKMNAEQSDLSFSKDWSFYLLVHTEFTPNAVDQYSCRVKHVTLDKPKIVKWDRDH

UniProt P61769, sequence (P61769 21-119): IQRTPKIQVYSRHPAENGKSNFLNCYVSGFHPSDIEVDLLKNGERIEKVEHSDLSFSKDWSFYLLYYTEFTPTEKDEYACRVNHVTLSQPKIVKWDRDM

Take “HLA-A*11:01 heavy chain, residues 1-275 (HHH) (domain or fragment)”: the affinity (half-saturation of the heavy chain titration) in assay [1] turned out to be 1.07 nM; in assay [2], 2.11 nM.
Regarding “chimeric MHC-I heavy chain HHP (HLA-A*11:01 α1α2, SLA-1*0401 α3) (domain or fragment)”, the affinity (half-saturation of the heavy chain titration) turned out to be 1.19 nM in assay [1] and 0.774 nM in assay [2].
